# Experimental data: the nanobody polyreactivity screen of Harvey et al. (2022)
# Assay: yeast display, Sf9 membrane polyspecificity reagent, FACS + sequencing; frameworks hold sequencing errors
# How it was run: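 A synthetic nanobody library was expressed on Saccharomyces cerevisiae BJ5465 by galactose induction for 36–48 hours. The library was stained for 1 hour at 4 °C with 10% biotinylated, detergent-solubilized Sf9 membrane reagent and enriched with streptavidin microbeads before FACS. Low and high (top ~1%) gates were set on anti-HA fluorescence for expression and streptavidin fluorescence for reagent binding, and each polyreactivity label reflects the gate of origin.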
row,Sequence,polyreactivity (PSR sort gate)
1,QVQLVESGGGLVQAGGSLRLSCAASGSTFTYYAMGWYRQAPGKEREWVAAISGGGDTYYADSVKGRFTISRDNAKNTVYLQMTSLKPEDTAVYYCNARVWAKSPRGSQYNMYDYWGQGTQVTVSS,high polyreactivity
2,QVQLVESGGGLVQAGGSLRLSCAASGSTFTYYAMGWYRQAPGNEREFVASLTYRGGRTNYADSVKGRFTISRDNATNTVYLQMNRQKPEDTAVYYCAARQRWTYAYDYWGQGTQVTVSS,high polyreactivity
3,QVQLVESGGGLVQAGGSLRLSCAASGSTFTYYAMGWYRQATGKETELVAAINIGGGGTYYADSVKGRFTISRDNAKNTVYLQMKSLKPEYTAVYYCATDIYFENGFGYWGQGTQVTVSS,low polyreactivity
4,QVQLVESGGGLVQAGGSLRLSCAASGSTFTYYTMGWYRQAPGKERELVAAISRTTGSTYYADSVKGRFTISRDNAKNTVYLQLNSLKPEDTAVDYCAAQSYKILLYFIGTAGDGYWGQGTQVTVSS,low polyreactivity
5,QVQLVESGGGLVQAGGSLRLSCAASGSTFVANTMGWYRQAPATERELVASITSGDSTNYADSVKGRFTISRDNAKNTVYFQMKSLKPEDTAVYYCAAETVWYYVGGQLIYYYWGQGTQVTVSS,low polyreactivity
6,QVQLVESGGGLVQAGGSLRLSCAASGSTFVAYAMGWYRQAPGKERELVAAISSVGRTNYADSVKGRFTISRDNAKYTVYLQMNSLKPEDTAVYYCAAVYVDRRKRSYYWGQGTQVTVSS,high polyreactivity
7,QVQLVESGGGLVQAGGSLRLSCAASGSTFVDKAMGWYRQAPGKERELVATISSGGSTYYADSVKGRFTISRDNAKNTVYLQMNSLKPEDTAVYYCNADGNKRYPWVDYWGQGTQVTVSS,low polyreactivity
8,QVQLVESGGGLVQAGGSLRLSCAASGSTFVDNALGGYRQAPGKERELVAGISIGGITYYADSVKGRFTISRDNAKNTVYLQMNSLKPEDTAVYYCAKRHKRTRNKYYYWGQGTQVTVSS,high polyreactivity
9,QVQLVESGGGLVQAGGSLRLSCAASGSTFVDYAMGWYRQAPGKERELVAAINERGGSTYYADSVKGRFTISRDNAKNTVYLQMNSLKPEDTAVYYCAARRRTRSSHSWYIRYGYWGQGTQVTVSS,low polyreactivity
10,QVQLVESGGGLVQAGGSLRLSCAASGSTFVFYAMGWYRPAPGKERELVASISFRGGSTRYADSVKGRFTISRDNAKNTVYLHMNSLKPEDTAVYYCNARPFYRYYYWGQGTQVTVSS,high polyreactivity
11,QVQLVESGGGLVQAGGSLRLSCAASGSTFVGNAMGWYRQAPGKERELVAAISSDSSTYYADSVKGRFTISRDNAKNTVYLQMNSLKPEDTAVYYCAEYYPGYGYGYWGQGTQVTVSS,low polyreactivity
12,QVQLVESGGGLVQAGGSLRLSCAASGSTFVGNAMGWYRQAPGKERELVAAITGGGGSTYYADSVKGRFTISRDNAKNTVYLQMNSLKPEDTAVYYCARDRTDYYVWYVRYYYWGQGTQVTVSS,low polyreactivity
13,QVQLVESGGGLVQAGGSLRLSCAASGSTFVGTALGWYRQAPGKVRELVATISNSGGRTYYADSVKGRFTISRDNAKNTVYLQMNSLKPEDTAVYYCAADHPVFGPGYSFDYWGQGTQVTVSS,low polyreactivity
14,QVQLVESGGGLVQAGGSLRLSCAASGSTFVGYAMGWYRQAPGKEREFVAAITRGGSTNYADSVKGRFTISRDNAKNTVYLQMNSLKPEDTAVYYCAARDRREGFNFDYWGQGTQVTVSS,low polyreactivity
15,QVQLVESGGGLVQAGGSLRLSCAASGSTFVGYAMGWYRQAPGKERELVAGITASGTNTYYADSVKGRFTISRDNAKNTVYLQMNSLKPEDTAVYYCAAAFVRPPPYVGYSRFDYWGQGTQVTVSS,high polyreactivity
16,QVQLVESGGGLVQAGGSLRLSCAASGSTFVGYFMGWYRQAPGKERELVAAITKIGGSTYYADSVKGSFTISRDNAKNNVYLQMNSLKPEDTAVYYCARTRSRWRYPIFYYWGQGTQVTVSS,high polyreactivity
17,QVQLVESGGGLVQAGGSLRLSCAASGSTFVGYTLGWSRQAPGNERELVASLSWDGGSTYYADSVKGRFTISRDNAKNTVYLQMNSLKPEDTAVYYCNADQGIIGAYTNSLPEYDYWGLGTQVTVSS,low polyreactivity
18,QVQLVESGGGLVQAGGSLRLSCAASGSTFVGYTMGWYRQAPGKERELVASITSDGSTNYADSVKGRFTISRDNAKNTVYLQMNSLKPEDTAVYYCNADIRRHGGYAHEYWGQGTQVTVSS,low polyreactivity
19,QVQLVESGGGLVQAGGSLRLSCAASGSTFVINAMGWYRQAPGKERELVAAIDFSGGSTYYADSVKGRFTISRDNAKNTVYLQMNSLKPEDTAVYYCAAVLSSYGYGGYTWYDYEYWGKGTQVTVSS,high polyreactivity
20,QVQLVESGGGLVQAGGSLRLSCAASGSTFVIYGMGWYRQAPGKERELVADITWIGGSTYYADSVKGRFTISRDNAKNTVYLQMNSLKPEDTAVYYCAADAAYLYLYNWYDTEDDYWGEGTQVTVSS,low polyreactivity
21,QVQLVESGGGLVQAGGSLRLSCAASGSTFVKNAMGWYRQAPGKERELVAAIRSSGGSTYYADSVKGRFTISRDNAKNTVYLQMNSLKPEDTAVYYCNKVLQASRSKYYYWGQGTQVTVSS,high polyreactivity
22,QVQLVESGGGLVQAGGSLRLSCAASGSTFVKNAMGWYRQAPGKERELVAAISGRGGSTYYADSVKGRFTISRDNAKNTVYLQMNSLKPEDTAVYYCNKAYSVAYTYNYWGQGTQVTVSS,high polyreactivity

row,Sequence,polyreactivity (PSR sort gate)
1,QVQLVESGGGLVQAGGSLRLSCAASGSTFVKNAMGWYRQAPGKERELVAAISYRGGRTYYADSVKGRYTISRDNAKNTVYLQMNSLKPEDTAVYYCNARYRTPSFIRMGYWGQGTQVTVSS,high polyreactivity
2,QVQLVESGGGLVQAGGSLRLSCAASGSTFVKYAMGWYRQAPGKERELVAAISWSGGRTYYADSVKGRFTISRDNAKNTVYLQMNSLKPEDTAVYYCAARSWYDRYPYYSWGQGTQVTVSS,high polyreactivity
3,QVQLVESGGGLVQAGGSLRLSCAASGSTFVLYAMGWYRQAPGKERELVAAITWTGGTTNYADSVKGRFTISLDNAKNTDYLQMNILQPEDTAVSYCAAKTNGRYDYWGQGTQVTVSS,low polyreactivity
4,QVQLVESGGGLVQAGGSLRLSCAASGSTFVNYGMGWYRQAPGKERELVAAITQSGGSTYYADSVKGRFTISRDNAKNTVYLQMNSLKPEDTAVYYCAAEVVRQWHGIGYDYWGQGTQVTVSS,low polyreactivity
5,QVQLVESGGGLVQAGGSLRLSCAASGSTFVPNAMGWYRQAPGKERELVAAISSVGSTNYADSVKGRFTISRDNAKNTVYLQLNSLKPEDTAVYYCAVRYPWRYFKYGYWGQGTQVTVSS,low polyreactivity
6,QVQLVESGGGLVQAGGSLRLSCAASGSTFVPNAMGWYRQAPGKERELVAAISSVGSTNYADSVKGRFTISRDNAKNTVYLQMNSLKPEDTAVYYCAVRYPWRYFKYGYWGQGSQVTVSS,low polyreactivity
7,QVQLVESGGGLVQAGGSLRLSCAASGSTFVPNAMGWYRQAPGKERELVADITSGGITNYADSVKGRFTISRDNAKNTVYLQMISLNPEDTGVYYCAVLYYILAPGYDYWGQGTLVTVSS,low polyreactivity
8,QVQLVESGGGLVQAGGSLRLSCAASGSTFVPYAIGWYRQAPGTERELVAAISSRGGRTSYADSVKGRFTISRDNAKNTVYLQMKRLKPEDTAVYYCIALYPGRLTDYSRSKMEYWGQGTQVTVSS,high polyreactivity
9,QVQLVESGGGLVQAGGSLRLSCAASGSTFVPYAMGWYRQAPGKERELVAAITDSGGSTSYADSVKGRFTISRDKAKNSVYLQMNSLKPEDTAVYYCAAQTRAIVQKYPGDDYWGQGTQVTVSS,low polyreactivity
10,QVQLVESGGGLVQAGGSLRLSCAASGSTFVPYAMGWYRQAPGKERELVAAITTSGGNTYYADSVKGRFTISRDNAKNTVYLQMNSLKPEDTAVYYCAADTYRRFDYWGEGTQVTVSS,low polyreactivity
11,QVQLVESGGGLVQAGGSLRLSCAASGSTFVPYAMGWYRQAPGKERELVASISWRGGSTSYADSVKGRFTISRDNAKNTVYLQMNSLKPEDTAVYYCAARPRYRYKQDYYYWGQGTQVTVSS,high polyreactivity
12,QVQLVESGGGLVQAGGSLRLSCAASGSTFVPYVMGWYRQAPGKERELVAAISKSGTSTYYADSVKGRFTISRDNAKNTVYLQMNCLKPEDTAVYYCAAVARRQVPYDYWGQGTQVTVSS,high polyreactivity
13,QVQLVESGGGLVQAGGSLRLSCAASGSTFVRNAMGWYRQAPGKERELVAGITFGGGSTYYADSVKGRFTISRDIAKNTVYLQMNSLKPEDTAVYYCAADLSYRGATRGDYYWGQGTQVTVSS,low polyreactivity
14,QVQLVESGGGLVQAGGSLRLSCAASGSTFVRYAMGGYRQAPGKERELVAAISWSGASTYYADSVKGRFTISRDNAKNTVYLQMNSLKPEDTAVYYCAARSRWYDAAGYPKYYYWGQGTQVTVSS,high polyreactivity
15,QVQLVESGGGLVQAGGSLRLSCAASGSTFVRYAMGWYRQAPGKERELVAAISSNGGSTYYADSVKGRFTISRDNAKNSVYLQMNSLKPEDTAVYYCAKSRVRKYYWGQGTQVTVSS,high polyreactivity
16,QVQLVESGGGLVQAGGSLRLSCAASGSTFVRYSMGWYRQAPGKERDLVAAITSSGGSTYYADSVKGRFTISRDNAKNSVYFQMNSLKPEDTAVYDFAAARYPYRYIYNYWGQGTQVTVSS,high polyreactivity
17,QVQLVESGGGLVQAGGSLRLSCAASGSTFVRYVMGWYRQAPGKERELVAAISRRGGSTYYADSVKGRFTISRDNAKNTVYLQMNSLKPEDTAVYYCARTVGYRTLLESDSWGQGTQVTVSS,high polyreactivity
18,QVQLVESGGGLVQAGGSLRLSCAASGSTFVRYVMGWYRQAPGKQRELVAAISRRGGSTYYADSVEGRFTISRDNAKNTVYLQMNSLKPEDTAVYYCAARGTSRKYYYWGQGTQVTVSS,high polyreactivity
19,QVQLVESGGGLVQAGGSLRLSCAASGSTFVRYVMGWYRQATGKERELVAAISRRGGSTYYADSVKGRFTISRDNAKNTVYLQMNSLKPEDTAVYYCARTVGYRTLLESDSWGQGTQVTVSS,high polyreactivity
20,QVQLVESGGGLVQAGGSLRLSCAASGSTFVSSALGWSSQAPGKARELVARIRRSGGSTYYADSVKGRFTISRDNAKNTVYLQMNSLKPEDTAVYDCAAGYSRGQYRYNYWGQGTQVTVSS,high polyreactivity
21,QVQLVESGGGLVQAGGSLRLSCAASGSTFVSYAMGWYRQAPGKERELVAAISSGGGSTYYADSVKGRFTISRDNAKNTVYLQMNSLKPEDTAVYYCAARGYAYRAQYGYWGQGTQVTVSS,high polyreactivity
